The data set concerns the molecule itself. The data set can be described thus: SDS-PAGE and immunoblot of detergent-resistant oligomers; soluble CAD cell lysates (1% Triton X-100, 0.1% SDS lysis buffer) 24-72 h after transient transfection; blots with anti-myc, anti-flag or anti-CSPα. In general terms: A western blot detects proteins with antibodies after separation by electrophoresis.

B1: myc-tagged wild type cysteine string protein (CSPα) (natural protein, UniProt P60905 1-198, looked up)
chain: MADQRQRSLSTSGESLYHVLGLDKNATSDDIKKSYRKLALKYHPDKNPDNPEAADKFKEINNAHAILTDATKRNIYDKYGSLGLYVAEQFGEENVNTYFVLSSWWAKALFVVCGLLTCCYCCCCLCCCFNCCCGKCKPKAPEGEETEFYVSPEDLEAQLQSDEREATDTPIVIQPASATETTQLTADSHPSYHTDGFN
notes: Cysteine string protein alpha (CSPα, DnaJC5), wild type; Seen on blots as an unpalmitoylated 26 kDa species, a palmitoylated 35 kDa monomer and a 70 kDa dimer; rat cDNA is surmised; also called WTCSPα; myc-CSPα; source: CAD cells, transiently transfected, in lysate
By stoichiometry N is commonly meant a count of units in the complex or per binding partner. For the protein B1, the “stoichiometry N” value is 2.
